Substitutions are numbered along the chain they refer to. Values belong to the binder of their own block, whether it stands above or below them.
What was measured:
[1] = biological target: T1, huCD98hc ECD Avi-His (human, UniProt P08195 105-529); assay: SPR, Biacore T200, Protein A/G capture
T1 construct: biotinylated on the Avi tag where captured on streptavidin; also called Human CD98-AVI-His; Human CD98hc-AVI-His
T1 sequence: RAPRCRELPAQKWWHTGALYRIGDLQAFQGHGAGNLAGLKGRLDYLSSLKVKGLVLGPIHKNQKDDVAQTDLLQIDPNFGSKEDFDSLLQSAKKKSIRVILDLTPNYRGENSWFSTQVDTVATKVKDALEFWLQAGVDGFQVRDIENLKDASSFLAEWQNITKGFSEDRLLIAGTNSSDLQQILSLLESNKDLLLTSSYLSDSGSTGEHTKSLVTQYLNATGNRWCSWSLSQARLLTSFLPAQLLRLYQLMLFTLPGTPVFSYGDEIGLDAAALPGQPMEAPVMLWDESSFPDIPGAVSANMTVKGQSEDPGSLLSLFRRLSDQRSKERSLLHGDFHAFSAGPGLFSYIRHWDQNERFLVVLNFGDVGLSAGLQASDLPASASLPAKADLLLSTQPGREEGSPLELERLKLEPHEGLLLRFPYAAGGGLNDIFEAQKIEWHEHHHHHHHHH
Protocol: (§1) Binding kinetics of humanized anti-CD98hc antibodies were evaluated using the Biacore T200 (Cytiva). Briefly, IgGs were diluted to 10 μg/mL and captured using a Protein A/G (ThermoFisher, #21186) surface on a CM5 chip that was prepared by amine coupling according to the instrument manufacturer's recommendations. The captured antibodies were tested for their ability to bind human and cynomolgus monkey CD98hc as follows.
(§2) Each sample was injected for 2 minutes to allow association, followed by dissociation in buffer alone for 10 minutes. Each sample injection was followed by the regeneration of the chip with three 30-second injections of 10 mM glycine pH 1.7. Fresh antibody was captured at the beginning of each cycle.
(§3) Data were analyzed using Biacore evaluation software to generate kinetic constants. The equilibrium dissociation constants (KD) were calculated from the fitted association and dissociation rate constants (k-on and k-off) for each of the anti-CD98hc antibodies.

[2] = biological target: T2, Cyno CD98hc ECD Avi-His (cynomolgus macaque, UniProt P08195 105-529 (human entry)); assay: SPR, Biacore T200, Protein A/G capture
T2 construct: biotinylated on the Avi tag where captured on streptavidin; also called Cyno CD98-AVI-His; Cyno CD98hc-AVI-His
T2 chain: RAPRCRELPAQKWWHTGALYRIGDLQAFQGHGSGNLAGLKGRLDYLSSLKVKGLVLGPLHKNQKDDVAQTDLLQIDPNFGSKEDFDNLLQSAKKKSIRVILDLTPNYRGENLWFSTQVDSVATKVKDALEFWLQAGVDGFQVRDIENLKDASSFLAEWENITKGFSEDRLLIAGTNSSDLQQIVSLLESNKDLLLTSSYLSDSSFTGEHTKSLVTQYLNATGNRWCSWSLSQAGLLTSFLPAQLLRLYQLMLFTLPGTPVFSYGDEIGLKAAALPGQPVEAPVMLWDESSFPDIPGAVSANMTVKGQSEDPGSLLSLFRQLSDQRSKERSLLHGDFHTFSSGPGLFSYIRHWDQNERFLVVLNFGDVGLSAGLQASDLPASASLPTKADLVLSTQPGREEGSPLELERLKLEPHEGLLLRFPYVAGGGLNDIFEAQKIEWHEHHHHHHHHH
Protocol: as §1, §2, §3

[3] = biological target: T1, huCD98hc ECD Avi-His; assay: SPR, Biacore T200, anti-kappa capture
Protocol: (§4) Binding kinetics of 2+1 anti-CD98hc bispecific antibodies to recombinant human and cynomolgus CD98hc ECD Avi-His were evaluated using a Biacore T200 instrument (Global Life Sciences Solutions USA LLC, Marlborough, MA). The 2+1 anti-CD98hc bispecific antibodies were prepared by diluting to 50 μg/mL in running buffer HBS-EP+ (Teknova) with 0.5 mg/mL BSA (MP Biomedicals) and captured by a goat anti-human kappa polyclonal antibody (Southern Biotech) surface that was prepared according to the instrument manufacturer's recommendations. Two independent experiments were performed as follows, resulting in an N of between one and […] determinations for each antibody. Estimates of affinity were generated by injecting each analyte over captured antibody on Flowcell 2, 3, or 4. CD98hc ECD Avi-His analytes were diluted with running buffer, in a series of five, three-fold serial dilutions starting from 600 nM. Analytes were injected without regeneration, from lowest to highest concentration, for 5 minutes each, and dissociation was followed for 15 minutes. After each analyte injection series, antibodies were regenerated with 10 mM glycine pH 2.0 buffer (Cytiva). Data were processed and analyzed using Biacore T200 BiaEvaluation software (Cytiva).
(§5) The equilibrium dissociation constants (KD) were calculated from the fitted association and dissociation rate constants (k-on and k-off) for 2+1 anti-CD98hc bispecific antibodies of the present disclosure binding to human and cynomolgus CD98hc ECD Avi-His. For measurements with N>1, means and standard deviation were calculated and measurements for all samples were combined and graphed using GraphPad Prism.

[4] = biological target: T2, Cyno CD98hc ECD Avi-His; assay: SPR, Biacore T200, anti-kappa capture
Protocol: as §4, §5

B1: CD98hc.04.064.4d (humanized, 2+1 format) (bispecific antibody)
scFv: QVQLVQSGAEVKKPGASVKVSCKASGYTFTSYWMHWVRQAPGQGLEWMGIIDPSDSETSYAQKFQGRVTMTRDTSTSTVYMELSSLRSEDTAVYYCARASYGKGYFDYWGQGTLVTVSSGGSEGKSSGSGSESKSTGGSDIQMTQSPSSLSASVGDRVTITCRASQSLLNNINQKNYLAWYQQKPGKAPKLLIYFASSLQSGVPSRFSGSGSGTDFTLTISSLQPEDFATYYCQQHYSSPFTFGGGTKVEIK
notes: tested as 2+1 bispecific (scFv on an IgG)
Kd [1]: 18 nM
Kd [2]: 340 nM
Kd [3]: 12 nM
Kd [4]: 160 nM

B2: CD98hc.04.064.1a (humanized, 2+1 format) (bispecific antibody)
scFv: QVQLVQSGAEVKKPGASVKVSCKASGYTFTSYWMNWVRQAPGQGLEWMGIIDPSDSETHYAQKFQGRVTMTVDKSTSTVYMELSSLRSEDTAVYYCARASYGKGYFDYWGQGTLVTVSSGGSEGKSSGSGSESKSTGGSDIVMTQSPDSLAVSLGERATINCKSSQSLLNNINQKNYLAWYQQKPGQPPKLLIYFASTRESGVPDRFSGSGSGTDFTLTISSLQAEDVAVYYCQQHYSSPFTFGGGTKVEIK
notes: as for B1
Kd [3]: 31 nM
Kd [4]: 880 nM

B5: CD98hc.04.064.1e (humanized, 2+1 format) (bispecific antibody)
scFv: B2 scFv with N35H
notes: as for B1
Kd [1]: 25 nM
Kd [2]: 740 nM
Kd [3]: 13 nM
Kd [4]: 120 nM

B6: CD98hc.04.064.4a (humanized, 2+1 format) (bispecific antibody)
scFv: B2 scFv with H59N, M70S, T76I, V79A, S85R, E89D, A92V
notes: as for B1
Kd [3]: 34 nM
Kd [4]: 430 nM

B7: CD98hc.04.064.4b (humanized, 2+1 format) (bispecific antibody)
scFv: B2 scFv with H59N, M70S, T76I, V79A, S85R, E89D, A92V, Y232F
notes: as for B1
Kd [3]: 30 nM
Kd [4]: 620 nM

The next lines start with the values.

Kd [3]: 17 nM
Kd [4]: 310 nM
B3: CD98hc.04.064.4c (humanized, 2+1 format) (bispecific antibody)
scFv: B2 scFv with N35H, H59N, M70S, T76I, V79A, S85R, E89D, A92V
notes: as for B1

Kd [1]: 35 nM
Kd [2]: 1500 nM
Kd [3]: 24 nM
Kd [4]: 360 nM
B4: CD98hc.04.064.1d (humanized, 2+1 format) (bispecific antibody)
scFv: B2 scFv with H59S
notes: as for B1

Source: patent US20250270341A1 (Alector, published 2025)
